The target in one data set is NTD (SARS-CoV-2, UniProt P0DTC9 47-174). The experiment in a line: fluorescence anisotropy; 1:1 fit; Anisotropy: 50 mM Na phosphate pH 6.5, 150 mM NaCl, 1 mM NaN3, 50 nM RNA; EMSA: 20 mM Tris pH 7.5, 150 mM NaCl, 1 mM DTT, room temp, 25 uM RNA; NTD NMR: 20 mM Na phosphate pH 6.5, 20 mM NaCl, 25 C; CTD NMR: 20 mM Na phosphate pH 6, 200 mM NaCl. To be noted: protein: recombinant; tags: none (tag removed by bdSENP1); label: 5',6-carboxyfluorescein (6-FAM) for anisotropy; unlabeled for NMR; single strand, no self-pairing.

Data set [1] concerns the target FL-N (nucleocapsid, full length) (SARS-CoV-2, UniProt P0DTC9 1-419). Kind of data set: fluorescence anisotropy; fit with locked stoichiometry n=4 RNA:FL-N; authors call it an estimate; Anisotropy: 50 mM Na phosphate pH 6.5, 150 mM NaCl, 1 mM NaN3, 50 nM RNA; EMSA: 20 mM Tris pH 7.5, 150 mM NaCl, 1 mM DTT, room temp, 25 uM RNA; NTD NMR: 20 mM Na phosphate pH 6.5, 20 mM NaCl, 25 C; CTD NMR: 20 mM Na phosphate pH 6, 200 mM NaCl. To be noted: protein: recombinant; tags: His-tag (TALON, imidazole eluted); chain copies: 2; label: 5',6-carboxyfluorescein (6-FAM) for anisotropy; unlabeled for NMR; single strand, no self-pairing.

With GGCACAUGGACGUC (ssRNA) [ss-14mer], the Kd with NTD was 22 µM; in data set [1] it was approximately 0.08 µM.

A word on the Kd: it is the constant that tells how readily two partners part at equilibrium.

These data come from paper PMC10605006, “RNA structure and multiple weak interactions balance the interplay between RNA binding and phase separation of SARS-CoV-2 nucleocapsid”.
